From patent publication US20220332804A1 (CSL INNOVATION, published 2022) come the findings set out here.

Assay in all cases: SPR, antibody captured, C2 as analyte;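 also: biacore at 37 °C, anti-C2 mAbs held by immobilised goat anti-human IgG, C2 alanine or serine mutants injected, double-referenced sensorgrams fitted to a 1:1 kinetic or steady-state model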
The target in one experiment is T1, human C2 H435A (human, UniProt P06681 21-752).
T1 sequence: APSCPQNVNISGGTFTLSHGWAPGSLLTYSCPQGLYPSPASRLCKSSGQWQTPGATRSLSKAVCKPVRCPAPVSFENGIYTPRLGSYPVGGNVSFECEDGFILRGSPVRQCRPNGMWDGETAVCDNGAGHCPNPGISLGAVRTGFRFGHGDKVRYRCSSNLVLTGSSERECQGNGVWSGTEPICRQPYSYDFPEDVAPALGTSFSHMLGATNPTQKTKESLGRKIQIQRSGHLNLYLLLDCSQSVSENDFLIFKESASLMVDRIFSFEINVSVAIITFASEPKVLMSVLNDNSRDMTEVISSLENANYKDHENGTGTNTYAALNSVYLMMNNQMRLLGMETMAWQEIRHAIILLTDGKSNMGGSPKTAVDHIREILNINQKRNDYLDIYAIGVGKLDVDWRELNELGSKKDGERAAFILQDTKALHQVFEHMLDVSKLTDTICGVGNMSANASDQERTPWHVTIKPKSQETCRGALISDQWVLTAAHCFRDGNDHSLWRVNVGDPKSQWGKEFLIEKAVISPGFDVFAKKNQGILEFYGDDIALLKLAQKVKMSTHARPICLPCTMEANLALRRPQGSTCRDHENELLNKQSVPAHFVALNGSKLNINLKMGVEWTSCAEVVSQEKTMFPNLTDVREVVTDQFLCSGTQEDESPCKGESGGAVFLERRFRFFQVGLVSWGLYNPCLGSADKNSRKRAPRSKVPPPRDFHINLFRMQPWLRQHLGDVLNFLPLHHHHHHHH

In a further experiment the target is T2, human C2 D441A (human, UniProt P06681 21-752).
T2 sequence: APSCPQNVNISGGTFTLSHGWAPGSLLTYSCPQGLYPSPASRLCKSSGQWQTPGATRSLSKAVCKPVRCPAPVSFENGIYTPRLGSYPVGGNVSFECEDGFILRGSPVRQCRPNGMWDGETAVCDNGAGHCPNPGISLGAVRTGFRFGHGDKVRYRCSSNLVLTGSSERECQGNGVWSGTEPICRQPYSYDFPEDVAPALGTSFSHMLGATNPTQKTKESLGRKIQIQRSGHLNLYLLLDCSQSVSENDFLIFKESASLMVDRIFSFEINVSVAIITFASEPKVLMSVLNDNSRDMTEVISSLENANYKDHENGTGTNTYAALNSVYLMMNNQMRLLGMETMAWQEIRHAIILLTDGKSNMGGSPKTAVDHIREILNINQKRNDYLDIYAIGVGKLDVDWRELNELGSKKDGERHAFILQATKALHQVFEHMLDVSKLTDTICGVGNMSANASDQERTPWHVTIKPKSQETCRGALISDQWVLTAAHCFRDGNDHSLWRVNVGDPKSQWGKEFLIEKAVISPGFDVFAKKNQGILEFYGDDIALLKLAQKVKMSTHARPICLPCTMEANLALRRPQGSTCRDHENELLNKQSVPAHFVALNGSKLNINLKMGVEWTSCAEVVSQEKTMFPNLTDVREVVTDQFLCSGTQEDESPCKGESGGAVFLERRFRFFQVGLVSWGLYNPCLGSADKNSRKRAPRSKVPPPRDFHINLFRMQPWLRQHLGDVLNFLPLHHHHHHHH

The next experiment deals with T3, human C2 Q447A (human, UniProt P06681 21-752).
T3 sequence: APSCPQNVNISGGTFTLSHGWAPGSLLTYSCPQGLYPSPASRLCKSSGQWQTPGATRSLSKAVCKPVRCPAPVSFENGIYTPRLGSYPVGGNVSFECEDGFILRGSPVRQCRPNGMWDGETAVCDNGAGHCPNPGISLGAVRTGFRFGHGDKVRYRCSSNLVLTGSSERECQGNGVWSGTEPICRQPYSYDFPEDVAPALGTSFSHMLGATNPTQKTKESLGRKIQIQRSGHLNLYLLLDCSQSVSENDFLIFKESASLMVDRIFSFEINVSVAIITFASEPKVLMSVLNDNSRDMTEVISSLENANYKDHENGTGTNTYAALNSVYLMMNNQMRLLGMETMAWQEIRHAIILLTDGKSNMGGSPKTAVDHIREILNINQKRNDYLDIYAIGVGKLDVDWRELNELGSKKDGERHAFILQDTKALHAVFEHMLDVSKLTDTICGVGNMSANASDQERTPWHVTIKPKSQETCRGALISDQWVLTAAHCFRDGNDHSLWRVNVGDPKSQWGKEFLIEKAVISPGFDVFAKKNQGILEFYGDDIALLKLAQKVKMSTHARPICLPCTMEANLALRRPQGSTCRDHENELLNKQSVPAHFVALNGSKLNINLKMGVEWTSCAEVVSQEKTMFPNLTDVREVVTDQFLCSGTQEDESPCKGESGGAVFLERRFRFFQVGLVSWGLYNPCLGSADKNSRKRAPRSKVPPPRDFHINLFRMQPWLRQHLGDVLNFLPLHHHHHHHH

Another experiment has as its target T4, human C2 N268A (human, UniProt P06681 21-752).
T4 sequence: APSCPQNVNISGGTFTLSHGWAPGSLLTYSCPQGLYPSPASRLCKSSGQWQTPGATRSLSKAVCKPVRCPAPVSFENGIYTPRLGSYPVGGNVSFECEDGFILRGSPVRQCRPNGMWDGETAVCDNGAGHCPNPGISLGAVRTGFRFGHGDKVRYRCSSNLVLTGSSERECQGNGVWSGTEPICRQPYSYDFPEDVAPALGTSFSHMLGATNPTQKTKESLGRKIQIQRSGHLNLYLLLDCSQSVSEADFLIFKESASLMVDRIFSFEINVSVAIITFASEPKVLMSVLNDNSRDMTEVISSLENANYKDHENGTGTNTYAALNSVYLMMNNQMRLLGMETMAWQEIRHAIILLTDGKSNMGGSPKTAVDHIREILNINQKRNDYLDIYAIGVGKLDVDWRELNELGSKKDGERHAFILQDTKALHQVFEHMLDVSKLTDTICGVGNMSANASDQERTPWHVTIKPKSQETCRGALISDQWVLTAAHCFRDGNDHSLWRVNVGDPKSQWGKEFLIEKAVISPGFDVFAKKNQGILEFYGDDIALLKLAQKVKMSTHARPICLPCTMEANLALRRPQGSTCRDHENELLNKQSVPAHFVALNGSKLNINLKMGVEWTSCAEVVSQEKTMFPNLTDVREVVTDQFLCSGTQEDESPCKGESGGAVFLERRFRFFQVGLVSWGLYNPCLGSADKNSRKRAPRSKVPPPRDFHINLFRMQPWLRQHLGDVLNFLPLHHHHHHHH

Experimental for human C2 D441A: (§1) Surface plasmon resonance (SPR, Biacore) was used for all binding affinity analyses. In brief, goat anti-human IgG was directly immobilised onto the carboxymethyl dextran surface of CM5 sensorchips to approximately 12,000 RU using standard NHS/EDC chemistry at pH 5. The immobilised antibody surface was pre-conditioned with ten injections of polyclonal human IgG (Privigen 60 s) prepared at 1 μg/mL. Ligands (anti-C2 mAbs) were captured at the beginning of each cycle as described below. An adjacent spot or flow cell in which only Polyclonal IgG was capture was used as a reference surface. The goat anti-human IgG Fc antibody surface was regenerate in 100 mM H3PO4, injected for 45 seconds at the end of each cycle. Experiments were performed at 37° C. and the flow rate of each experiment was kept constant at 30 μL/min.
(§2) Sensogram data was double-referenced against a reference anti-IgG surface (i.e. minus anti-C2 mAb) and blank buffer injections obtained within each experiment. The binding data was fit to 1:1 (kinetic or steady-state) model using local Rmax and null refraction index (RI=0) when appropriate. Buffers and solutions were filtered (0.22 μm) prior to use.
Experimental for human C2 H435A: as §1, §2
Experimental for human C2 N268A: as §1, §2
Experimental for human C2 Q447A: as §1, §2

B1: RF16-242 (antibody, human IgG4 S228P, lambda, V domains shown)
VH: EVQLLQSGAEVKKPGESLKISCKGSGYSFTSYWIGWVRQMPGKGLEWMGIIYPGDSDTRYSPSFQGQVTISADKSISTAYLQWSSLKASDTAMYYCARRGHYGDYFDYWGQGTLVTVSS
VL: SYELTQPPSVSVSPGQTARITCSGDALPKKYAYWYHQKSGQAPVLVIYEDRRRPSEIPERFSGSSSGTMATLTITGAQVEDEGVYFCYSRDRAGNQRVFGGGTQLTVLG
notes: pH-dependent anti-C2 antibody from a phage display library
In the case of B1, the dissociation constant Kd with human C2 H435A turned out to be 62.5 nM; in the experiment with human C2 D441A, 114 nM; with human C2 Q447A it was 26 nM; with human C2 N268A it was 14.8 nM.
